{"source": "patent US9481899B2", "about": "“Methods and compositions for producing hydrocarbons” (priority 2008, dated 2016)", "molecules": {"B1": {"name": "SEQ ID NO: 27: Cyanothece sp. ATCC51142 cce_0778, putative decarbonylase (protein, listed as Cyanothece sp.)", "chain": "MQELALRSELDFNSETYKDAYSRINAIVIEGEQEAYQNYLDMAQLLPEDEAELIRLSKMENRHKKGFQACGKNLNVTPDMDYAQQFFAELHGNFQKAKAEGKIVTCLLIQSLIIEAFAIAAYNIYIPVADPFARKITEGVVKDEYTHLNFGEVWLKEHFEASKAELEDANKENLPLVWQMLNQVEKDAEVLGMEKEALVEDFMISYGEALSNIGFSTREIMKMSAYGLRAA"}, "B2": {"name": "SEQ ID NO: 3: Synechocystis sp. PCC6803 sll0208, putative decarbonylase (protein, listed as Synechocystis sp.)", "chain": "MPELAVRTEFDYSSEIYKDAYSRINAIVIEGEQEAYSNYLQMAELLPEDKEELTRLAKMENRHKKGFQACGNNLQVNPDMPYAQEFFAGLHGNFQHAFSEGKVVTCLLIQALIIEAFAIAAYNIYIPVADDFARKITEGVVKDEYTHLNYGEEWLKANFATAKEELEQANKENLPLVWKMLNQVQGDAKVLGMEKEALVEDFMISYGEALSNIGFSTREIMRMSSYGLAGV"}, "B3": {"name": "SEQ ID NO: 51: Prochlorococcus mariunus NATL2A PMN2A_1863, putative decarbonylase, codon optimized for E. coli (protein, listed as Prochlorococcus marinus)", "chain": "MQAFASNNLTVEKEELSSNSLPDFTSESYKDAYSRINAVVIEGEQEAYSNFLDLAKLIPEHADELVRLGKMEKKHMNGFCACGRNLAVKPDMPFAKTFFSKLHNNFLEAFKVGDTTTCLLIQCILIESFAISAYHVYIRVADPFAKRITEGVVQDEYLHLNYGQEWLKANLETVKKDLMRANKENLPLIKSMLDEVSNDAEVLHMDKEELMEEFMIAYQDSLLEIGLDNREIARMALAAVI"}, "B4": {"name": "SEQ ID NO: 31: Cyanothece sp. PCC7425 Cyan7425_2986, putative decarbonylase (protein, listed as Cyanothece sp.)", "chain": "MSDCATNPALDYYSETYRNAYRRVNGIVIEGEKQAYDNFIRLAELLPEYQAELTRLAKMEARHQKSFVACGQNLKVSPDLDFAAQFFAELHQIFASAANAGQVATCLVVQALIIECFAIAAYNTYLPVADEFARKVTASVVQDEYSHLNFGEVWLQNAFEQCKDEIITANRLALPLIWKMLNQVTGELRILGMDKASLVEDFSTRYGEALGQIGFKLSEILSLSVQGLQAVTP"}, "B5": {"name": "SEQ ID NO: 29: Cyanothece sp. PCC7425 Cyan7425_0398, putative decarbonylase (protein, listed as Cyanothece sp.)", "chain": "MPQVQSPSAIDFYSETYQDAYSRIDAIVIEGEQEAHDNYLKLTELLPDCQEDLVRLAKMEARHKKGFEACGRNLKVTPDMEFAQQFFADLHNNFQKAAAANKIATCLVIQALIIECFAIAAYNIYIPVADDFARKITENVVKDEYTHLNFGEEWLKANFDSQREEVEAANRENLPIVWRMLNQVETDAHVLGMEKEALVESFMIQYGEALENIGFSTREIMRMSVYGLSAA"}, "B6": {"name": "SEQ ID NO: 13: Synechococcus sp. JA-3-3Ab CYA_0415, putative decarbonylase (protein, listed as Synechococcus sp.)", "chain": "MAPANVLPNTPPSPTDGGGTALDYSSPRYRQAYSRINGIVIEGEQEAHDNYLKLAEMLPEAAEELRKLAKMELRHMKGFQACGKNLQVEPDVEFARAFFAPLRDNFQSAAAAGDLVSCFVIQSLIIECFAIAAYNIYIPVADDFARKITEGVVKDEYLHLNFGERWLGEHFAEVKAQIEAANAQNLPLVRQMLQQVEADVEAIYMDREAIVEDFMIAYGEALASIGFNTREVMRLSAQGLRAA"}, "B7": {"name": "SEQ ID NO: 49: Prochlorococcus marinus MIT9313 PMT1231, putative decarbonylase, codon optimized for E. coli (protein, listed as Prochlorococcus marinus)", "chain": "MPTLEMPVAAVLDSTVGSSEALPDFTSDRYKDAYSRINAIVIEGEQEAHDNYIAIGTLLPDHVEELKRLAKMEMRHKKGFTACGKNLGVEADMDFAREFFAPLRDNFQTALGQGKTPTCLLIQALLIEAFAISAYHTYIPVSDPFARKITEGVVKDEYTHLNYGEAWLKANLESCREELLEANRENLPLIRRMLDQVAGDAAVLQMDKEDLIEDFLIAYQESLTEIGFNTREITRMAAAALVS"}, "B8": {"name": "SEQ ID NO: 11: Thermosynechococcus elongatus BP-1 tll1313, putative decarbonylase (protein, listed as Thermosynechococcus elongatus)", "chain": "MTTATATPVLDYHSDRYKDAYSRINAIVIEGEQEAHDNYIDLAKLLPQHQEELTRLAKMEARHKKGFEACGRNLSVTPDMEFAKAFFEKLRANFQRALAEGKTATCLLIQALIIESFAIAAYNIYIPMADPFARKITESVVKDEYSHLNFGEIWLKEHFESVKGELEEANRANLPLVWKMLNQVEADAKVLGMEKDALVEDFMIQYSGALENIGFTTREIMKMSVYGLTGA"}}, "system": "E. coli MG1655", "test": "Coexpression of decarbonylase and aldehyde-generating enzyme in E. coli, GC-MS of hydrocarbons", "format": "cell-based", "settings": "for Production of Alkanes and Alkenes: alkane/alkene biosynthetic polypeptide coexpressed in E. coli with the aldehyde biosynthetic polypeptide of the same table row; for fatty aldehyde decarbonylase activity in E. coli: cotransformed with S. elongatus PCC7942_1594 into E. coli MG1655, M9 minimal media, 37° C.", "source_text": "Seven cyanobacteria, whose complete genome sequences are publicly available, were selected for verification and/or detection of alkane biosynthesis: Synechococcus elongatus PCC7942, Synechococcus elongatus PCC6301, Anabaena variabilis ATCC29413, Synechocystis sp. PCC6803, Nostoc punctiforme PCC73102, Gloeobacter violaceus ATCC 29082, and Prochlorococcus marinus CCMP1986. Only the first three cyanobacterial strains from this list had previously been reported to contain alkanes (Han et al., J. Am. Chem. Soc. 91:5156-5159 (1969); Fehler et al., Biochem. 9:418-422 (1970)). The strains were grown photoautotrophically in shake flasks in 100 mL of the appropriate media (listed in Table 8) for 3-7 days at 30° C. at a light intensity of approximately 3,500 lux. Cells were extracted for alkane detection as follows: cells from 1 mL culture volume were centrifuged for 1 min at 13,000 rpm, the cell pellets were resuspended in methanol, vortexed for 1 min and then sonicated for 30 min. After centrifugation for 3 min at 13,000 rpm, the supernatants were transferred to fresh vials and analyzed by GC-MS. The samples were analyzed on either 30 m DP-5 capillary column (0.25 mm internal diameter) or a 30 m high temperature DP-5 capillary column (0.25 mm internal diameter) using the following method.\nAfter a 1 μL splitless injection (inlet temperature held at 300° C.) onto the GC/MS column, the oven was held at 100° C. for 3 mins. The temperature was ramped up to 320° C. at a rate of 20° C./min. The oven was held at 320° C. for an additional 5 min. The flow rate of the carrier gas helium was 1.3 mL/min. The MS quadrapole scanned from 50 to 550 m/z. Retention times and fragmentation patterns of product peaks were compared with authentic references to confirm peak identity.\nThe genomic DNA encoding Synechococcus elongatus PCC7942 orf1594 (YP_400611; putative aldehyde-generating enzyme) (SEQ ID NO:65) was amplified and cloned into the NcoI and EcoRI sites of vector OP-80 (pCL1920 derivative) under the control of the Ptrc promoter. The resulting construct (“OP80-PCC7942_1594”) was transformed into E. coli MG1655 and the cells were grown at 37° C. in M9 minimal media with 1% (w/v) glucose as carbon source and supplemented with 100 μg/mL spectinomycin. When the culture reached OD600 of 0.8-1.0, it was induced with 1 mM IPTG and cells were grown for an additional 18-20 h at 37° C. Cells from 0.5 mL of culture were extracted with 0.5 mL of ethyl acetate. After sonication for 60 min, the sample was centrifuged at 15,000 rpm for 5 min. The solvent layer was analyzed by GC-MS as described in Example 1.\nThe genomic DNA encoding Synechococcus elongatus PCC7942 orf1593 (YP_400610; putative decarbonylase) (SEQ ID NO:1) was amplified and cloned into the NdeI and XhoI sites of vector OP-183 (pACYC derivative) under the control of the Ptrc promoter. The resulting construct was cotransformed with OP80-PCC7942_1594 into E. coli MG1655 and the cells were grown at 37° C. in M9 minimal media supplemented with 100 μg/mL spectinomycin and 100 μg/mL carbenicillin. The cells were cultured and extracted as in Example 3 and analyzed by GC-MS as described in Example 1. […]", "data": [{"molecule": "SEQ ID NO: 1: Synechococcus elongatus PCC7942 orf1593, putative decarbonylase", "values": [{"measurement": "Production of Alkanes and Alkenes", "result": "yes"}, {"measurement": "fatty aldehyde decarbonylase activity in E. coli", "result": "active fatty aldehyde decarbonylase"}]}, {"molecule": "B1", "values": [{"measurement": "Production of Alkanes and Alkenes", "result": "yes"}, {"measurement": "fatty aldehyde decarbonylase activity in E. coli", "result": "active fatty aldehyde decarbonylase"}]}, {"molecule": "B2", "values": [{"measurement": "Production of Alkanes and Alkenes", "result": "yes"}]}, {"molecule": "B3", "values": [{"measurement": "Production of Alkanes and Alkenes", "result": "yes"}, {"measurement": "fatty aldehyde decarbonylase activity in E. coli", "result": "active fatty aldehyde decarbonylase"}]}, {"molecule": "B4", "values": [{"measurement": "Production of Alkanes and Alkenes", "result": "yes"}, {"measurement": "fatty aldehyde decarbonylase activity in E. coli", "result": "active fatty aldehyde decarbonylase"}]}, {"molecule": "B5", "values": [{"measurement": "Production of Alkanes and Alkenes", "result": "yes"}, {"measurement": "fatty aldehyde decarbonylase activity in E. coli", "result": "active fatty aldehyde decarbonylase"}]}, {"molecule": "B6", "values": [{"measurement": "Production of Alkanes and Alkenes", "result": "yes"}]}, {"molecule": "B7", "values": [{"measurement": "Production of Alkanes and Alkenes", "result": "yes"}, {"measurement": "fatty aldehyde decarbonylase activity in E. coli", "result": "active fatty aldehyde decarbonylase"}]}, {"molecule": "B8", "values": [{"measurement": "Production of Alkanes and Alkenes", "result": "yes"}, {"measurement": "fatty aldehyde decarbonylase activity in E. coli", "result": "active fatty aldehyde decarbonylase"}]}]}
